The nature of data set [1]: Pharmacokinetics of soluble receptors in female C57B1/6 mice (serum ELISA, noncompartmental analysis). The class given is in vivo, mouse. Conditions: for AUCINF: extrapolated to infinity. Here is the method:
Studies were performed to evaluate the pharmacokinetics of the mouse (IL-27RAm(mFc1)) and human (IL-27RA-Fc5) soluble receptors in female C57B1/6 mice.
Serum was generated from each sample and analyzed by a qualified enzyme-linked immunosorbant assay (ELISA). The resulting mean serum concentration versus time profiles were then subjected to noncompartmental pharmacokinetic analyses. The following pharmacokinetic parameters were calculated: C0 and Cmax (extrapolated concentration at time zero and maximum serum concentration, respectively), Tmax (time to achieve maximum concentration), t1/2 λz (terminal half-life), AUC0-t (area under the concentration versus time curve from time zero to the last measurable time point), AUCINF (area under the concentration versus time curve extrapolated to infinity), C1 or C1/F (clearance or clearance divided by bioavailable fraction, respectively), VSS or VZ/F (steady state volume of distribution or volume of distribution divided by the bioavailable fraction, respectively), and F (bioavailable fraction).

For the next data set, the target named is T1, single-chain mouse IL-27 (Mus musculus, UniProt O35228+Q8K3I6).
T1 sequence (O35228+Q8K3I6 with tags, fused parts or gaps): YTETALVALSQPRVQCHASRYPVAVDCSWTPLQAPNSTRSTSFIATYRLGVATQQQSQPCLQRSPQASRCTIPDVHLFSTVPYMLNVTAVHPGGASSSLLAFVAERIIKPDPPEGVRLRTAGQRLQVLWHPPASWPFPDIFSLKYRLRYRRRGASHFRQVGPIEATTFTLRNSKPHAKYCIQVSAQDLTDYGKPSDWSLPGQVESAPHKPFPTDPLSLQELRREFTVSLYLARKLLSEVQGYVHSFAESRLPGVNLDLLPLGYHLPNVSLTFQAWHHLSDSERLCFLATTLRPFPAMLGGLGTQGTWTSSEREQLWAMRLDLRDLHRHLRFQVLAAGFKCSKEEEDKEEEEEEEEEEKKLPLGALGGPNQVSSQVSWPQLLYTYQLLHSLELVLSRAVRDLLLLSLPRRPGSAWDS
Nature of the data set: IL-27 inhibition of IL-2 production neutralized by IL-27RA Fc (third set of experiments). Type of data set: cell-based. Conditions: + IL-27 (10 ng/ml). As for the experimental part: Naïve mouse CD4 T-cells were isolated as described above. For testing of the neutralizing mAbs, the naïve CD4 T cells were preincubated for 30 minutes at 37 degrees C. with graded concentrations (60, 30, 15, 7.5, 3.75, 1.875.micro.g/ml) of either neutralizing rat anti-mouse IL27RA mAb (each mAb tested separately), rat IgG1 isotype control mAb, rat IgG2a isotype control mAb, or no mAb. […] The CD4 T cells (4×10^5/well) were then transferred to anti-CD3 coated tissue culture plates. Single-chain mouse IL-27 (10 ng/ml) was then added to the plates. Duplicate plates were set up for all experimental conditions. The plates were then cultured at 37 degrees for up to 72 hours.
For testing of the soluble receptor, single-chain mouse IL-27 (10 ng/ml) was preincubated for 30 minutes at 37 degrees C. with either IL27RAm(mFc1) (10.0 and 5.0.micro.g/ml), IL27RA-Fc5, mouse Fc1 protein (10.0 and 5.0.micro.g/ml), human Fc5 protein (10.0 and 5.0.micro.g/ml), or no recombinant protein in wells of the anti-CD3 coated plates. 4×10^5 CD4^+ CD62L high cells were added to the wells. Duplicate plates were set up for all experimental conditions. The plates were then cultured at 37 degrees for up to 72 hours. Cell supernatants were collected from one set of plates at 48 hours and from the duplicate set of plates at 72 hours. The supernatants were stored frozen at −80° C.

Values joined by “and” are separate entries in the source; they are usually repeats but may differ in a detail not shown here. Equal entries are not always repeated.

The values that follow come from patent publication US20100093076A1, “SOLUBLE IL-27 RECEPTOR” (priority 2006, published 2010).

B1: IL-27RAm(mFc1): Extracellular domain of mouse IL27RA fused to a wild type BALB/c mouse gamma2a constant region Fc tag (protein)
chain: MNRLERVALARLETPRLEGLLELELESLEMSLELELEGTRPRHGSPRGPRLEQCYSVGPRLEGILENCSWGLPRLEGDLEGLTPRPRVLEYHQSQKYHPRNRVWGLVKVPRSKQSWVTIPRRGLQFTMADKLELEIWGTQKGRPRLEWSSVSVASNLEGLTQMKPRDTPRQIFSQVASPISGLGLATLEGLATVQWAPRPRVWPRPRQKALETCQFRYKGLCQAGLAWTRLEGLPRQLEKTDGLETPRVGLMQNLEGLPRGTCYQVSGRCQVGLNGYPRWGGLWSSPRLESFQTPRFLEDPRGLDVWVSGTVCGLTSGKRAALELEVWKDPRRPRCVQVTYTVWFGAGDITTTQGLGLVPRCCKSPRVPRAWMGLWAVVSPRGNSTSWVPRPRTNLESLEVCLEAPRGLSAPRCDVGVSSADGSPRGIKVTWKQGTARGSPRLEGLYVVASPWAQDGDSLEDKLENWTRLEPRPRGNLESTLELEPRGGLFKGGVPRYRITVTAVYSGGLEAAAPRSVWGFRGLGLLEVPRLEAGPRAVWRLEPRDDPRPRGTPRVVALAWGGLVPRRHQLERGQATHYTFCIQSRGLESTVCRNVSSQTQTATLEPRNLEHSGSFKLEWVTVSTVALAGQGPRPRGPRDLESLEHLEPRDNRIRWKALEPRWFLESLEWGLELELEMGCGLESLEASTRCLEQARCLEHWRHKLELEPRQWIWGLRVPRDPRANSNSGQPRYIKGLVSLEPRQPRPRKDGPRILEGLVGLGLVGLLEQPRVVGLSPRKASAPRIYSGYGLKHFLEPRTPRGLGLLEGLELEV
modifications: left off: a dimerising Fc or GST
notes: Extracellular domain of mouse IL27RA fused to a wild type BALB/c mouse gamma2a constant region Fc tag
As usually defined, the Tmax is the time at which the peak concentration occurs. Broadly, the Cmax is the highest concentration seen after dosing. As a reminder, the Vss is a proportionality between amount in the body and measured concentration, not a real space. High values mean extensive tissue distribution, low ones confinement near the circulation. For B1, in data set [1] (IP, 100 μg), the AUC0-24 turned out to be 98.2 µg·h/mL, the Cl/F is 0.983 mL/h, the Tmax turned out to be 1 h and the “t1/2 λz (terminal half-life)” value is recorded as 5.17 h. Further, in data set [1] (IP, 100 μg), the AUCINF is 102 µg·h/mL. For the same molecule, the Cmax in data set [1] (IP, 100 μg, mouse serum) was 13200 ng/mL. For the same molecule, in data set [1] (IV, 100 μg), the AUC0-24 was found to be 157 µg·h/mL, the Cl is given as 0.618 mL/h, the Vss is 3.05 mL and the “t1/2 λz (terminal half-life)” value is reported as 5.25 h. The AUCINF in data set [1] (IV, 100 μg) was 162 µg·h/mL. In data set [1] (IV, 100 μg, mouse serum), the “Co (extrapolated concentration at time zero)” value is 36.2 µg/mL. For the same molecule, in data set [1] (SC, 100 μg), the AUC0-24 turned out to be 56.5 µg·h/mL and the Tmax amounted to 3 h. The molecule further came in with a Cmax in data set [1] (SC, 100 μg, mouse serum) of 7950 ng/mL. In addition, the “clearance compared to IL-27RA-Fc5” value in data set [1] (female C57B1/6 mice) is listed as “more rapid clearance”. Moreover, the IL-2 concentration in the data set with single-chain mouse IL-27 (48 hr, protein conc. 5 (μg/ml; Fc controls in molar equiv.)) came to 4021.15 pg/mL. Moreover, the IL-2 concentration with single-chain mouse IL-27 (48 hr, protein conc. 10 (μg/ml; Fc controls in molar equiv.), listed as mIL-27RA) was 5215.59 pg/mL and 4922.26 pg/mL. The IL-2 concentration with single-chain mouse IL-27 (72 hr, protein conc. 5 (μg/ml; Fc controls in molar equiv.)) turned out to be 5744.95 pg/mL. The IL-2 concentration in the data set with single-chain mouse IL-27 (72 hr, protein conc. 10 (μg/ml; Fc controls in molar equiv.), listed as mIL-27RA) is 6704.62 pg/mL and 12186.7 pg/mL.
